These results are taken from US20240350597A1, “PROTEASE INHIBITORS” (University College Dublin, priority 2023, published 2024).

In this experiment the test system is SARS-CoV-2 (WT, D614G). The experiment is classed as cell-based.

Residue numbers refer to the chain shown, from its start. “Also recorded” adds a separate entry of the source.

B1: B3-WT: Wild type recombinant SerpinB3 (SCCA-1), 44.5 kDa cross-class inhibitor of cysteine proteases including CatL; SEQ ID No. 5 (protein, listed as Homo sapiens)
chain: MNSLSEANTKFMFDLFQQFRKSKENNIFYSPISITSALGMVLLGAKDNTAQQIKKVLHFDQVTENTTGKAATYHVDRSGNVHHQFQKLLTEFNKSTDAYELKIANKLFGEKTYLFLQEYLDAIKKFYQTSVESVDFANAPEESRKKINSWVESQTNEKIKNLIPEGNIGSNTTLVLVNAIYFKGQWEKKFNKEDTKEEKFWPNKNTYKSIQMMRQYTSFHFASLEDVQAKVLEIPYKGKDLSMIVLLPNEIDGLQKLEEKLTAEKLMEWTSLQNMRETRVDLHLPRFKVEESYDLKDTLRTMGMVDIFNGDADLSGMTGSRGLVLSGVLHKAFVEVTEEGAEAAAATAVVGFGSSPTSTNEEFHCNHPFLFFIRQNKTNSILFYGRFSSP
Turning to B1, the “inhibition of SARS-CoV-2 WT (D614G) infection (in words)” value is reported as “reductions in SARS-CoV-2 infection”. Besides, the “inhibition of SARS-CoV-2 replication / infection” value (50 µM) is 50%.

B2: B3-TMP: SerpinB3 variant with RCL residues 350 to 354 (P4 to P1′) replaced by IQFRV to inhibit TMPRSS2; SEQ ID No. 6 (protein)
chain: B1 chain with V350I, G351Q, G353R, S354V
As for B2, the “inhibition of SARS-CoV-2 WT (D614G) infection (in words)” value is recorded as “good dose-dependent downregulation of viral replication; also recorded: greater inhibitor for both viral strains than WT-SerpinB3” and the “inhibition of SARS-CoV-2 replication” value is “up to 50%”. Further, where the note is “50 µM”, the “inhibition of viral replication, full time treatment” value is 93% and the “viral inhibition, treatment limited to viral entry” value was “up to 70%”.
